Laboratory results from the supplement of paper PMC9112550, “Optimization of the antimicrobial peptide Bac7 by deep mutational scanning” (BMC Biology, 2022).

Tested on: Escherichia coli TOP10
Assay: shrunken log2 fold change of peptide-encoding DNA abundance (4.5 h post-induction vs induction); higher = less antimicrobial activity (less host growth inhibition)
Conditions: time post-induction: 4.5 h; library: site-saturation at positions 5, 18, 19, 20
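Also: peptides expressed intracellularly from a pBAD plasmid library in pooled LB shake-flask culture, induced with 0.3% L-arabinose, DNA abundance read by NGS, three biological replicates, DESeq2 with apeglm shrinkage.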

| Sequence | shrunken log2 fold change |
| --- | --- |
| RRIRTRPPRLPRPRPRPEDAPRP | 0.0648 |
| RRIRPRPPRLPRPRPRPFFSPRP | -0.0993 |
| RRIRCRPPRLPRPRPRPWYTPRP | -0.739 |
| RRIRCRPPRLPRPRPRPFAEPRP | -0.0347 |
| RRIRIRPPRLPRPRPRPGYAPRP | -0.192 |
| RRIRFRPPRLPRPRPRPPRAPRP | 0.92 |
| RRIRKRPPRLPRPRPRPRQIPRP | 0.298 |
| RRIRIRPPRLPRPRPRPKLTPRP | 0.0656 |
| RRIRLRPPRLPRPRPRPIPTPRP | -0.105 |
| RRIRLRPPRLPRPRPRPTWMPRP | -0.0614 |
| RRIRMRPPRLPRPRPRPSKHPRP | 0.159 |
| RRIRRRPPRLPRPRPRPFCHPRP | -0.17 |
| RRIRCRPPRLPRPRPRPAFPPRP | 0.16 |
| RRIRERPPRLPRPRPRPVRDPRP | 0.337 |
| RRIRHRPPRLPRPRPRPLSPPRP | -0.0711 |
| RRIRGRPPRLPRPRPRPRWVPRP | 0.289 |
| RRIRHRPPRLPRPRPRPDNSPRP | -1.1 |
| RRIRPRPPRLPRPRPRPPLFPRP | 0.36 |
| RRIRWRPPRLPRPRPRPIRYPRP | -0.242 |
| RRIRCRPPRLPRPRPRPWKYPRP | -0.0802 |
| RRIRSRPPRLPRPRPRPSGDPRP | 0.118 |
| RRIRGRPPRLPRPRPRPFPSPRP | 0.142 |
| RRIRTRPPRLPRPRPRPFYFPRP | -0.57 |
| RRIRIRPPRLPRPRPRPWEEPRP | -0.04 |
| RRIRRRPPRLPRPRPRPFLPPRP | 0.111 |

| Sequence | shrunken log2 fold change |
| --- | --- |
| RRIRDRPPRLPRPRPRPTIQPRP | -0.0142 |
| RRIRIRPPRLPRPRPRPGLCPRP | 0.108 |
| RRIRERPPRLPRPRPRPMCKPRP | -0.373 |
| RRIRFRPPRLPRPRPRPSNCPRP | -0.529 |
| RRIRCRPPRLPRPRPRPYWSPRP | -1.2 |
| RRIRIRPPRLPRPRPRPTLCPRP | 0.0503 |
| RRIRKRPPRLPRPRPRPGHAPRP | 0.667 |
| RRIRYRPPRLPRPRPRPMKEPRP | -0.00804 |
| RRIRGRPPRLPRPRPRPIAMPRP | 0.401 |
| RRIRERPPRLPRPRPRPCGEPRP | -0.116 |
| RRIRLRPPRLPRPRPRPINMPRP | -0.482 |
| RRIRTRPPRLPRPRPRPHWWPRP | 0.203 |
| RRIRIRPPRLPRPRPRPSNMPRP | -0.353 |
| RRIRVRPPRLPRPRPRPVKRPRP | 0.0275 |
| RRIRHRPPRLPRPRPRPEDLPRP | 0.172 |
| RRIRPRPPRLPRPRPRPFVGPRP | -0.297 |
| RRIRFRPPRLPRPRPRPGVTPRP | 0.0815 |
| RRIRARPPRLPRPRPRPRVLPRP | 0.189 |
| RRIRVRPPRLPRPRPRPTIPPRP | -0.0501 |
| RRIRMRPPRLPRPRPRPPDTPRP | 1.84 |
| RRIRERPPRLPRPRPRPDIQPRP | 3.69 |
| RRIRNRPPRLPRPRPRPTWCPRP | -0.0306 |
| RRIRNRPPRLPRPRPRPMAYPRP | -0.161 |
| RRIRTRPPRLPRPRPRPNYLPRP | -0.66 |
| RRIRCRPPRLPRPRPRPWCEPRP | -0.349 |

| Sequence | shrunken log2 fold change |
| --- | --- |
| RRIRMRPPRLPRPRPRPLPPPRP | 1.37 |
| RRIRHRPPRLPRPRPRPTVFPRP | -0.251 |
| RRIRTRPPRLPRPRPRPQKGPRP | -0.00821 |
| RRIRQRPPRLPRPRPRPDWLPRP | -0.102 |
| RRIRSRPPRLPRPRPRPMHDPRP | -0.314 |
| RRIRCRPPRLPRPRPRPLEPPRP | 0.0773 |
| RRIRNRPPRLPRPRPRPMKRPRP | 0.0981 |
| RRIRTRPPRLPRPRPRPPQVPRP | -0.0388 |
| RRIRIRPPRLPRPRPRPLPDPRP | 0.0943 |
| RRIRMRPPRLPRPRPRPSEYPRP | 0.0493 |
| RRIRDRPPRLPRPRPRPILDPRP | 0.0609 |
| RRIRYRPPRLPRPRPRPRIKPRP | -0.502 |
| RRIRWRPPRLPRPRPRPWRSPRP | 0.49 |
| RRIRHRPPRLPRPRPRPIACPRP | 0.0428 |
| RRIRLRPPRLPRPRPRPFPWPRP | -0.0836 |
| RRIRPRPPRLPRPRPRPQPCPRP | -0.0627 |
| RRIRWRPPRLPRPRPRPYVPPRP | -0.837 |
| RRIRSRPPRLPRPRPRPLINPRP | -0.0856 |
| RRIRPRPPRLPRPRPRPHIWPRP | -0.3 |
| RRIRTRPPRLPRPRPRPKREPRP | 0.319 |
| RRIRARPPRLPRPRPRPLQTPRP | 0.0966 |
| RRIRGRPPRLPRPRPRPSWWPRP | 0.537 |
| RRIRSRPPRLPRPRPRPNWQPRP | 0.0694 |
| RRIRWRPPRLPRPRPRPCPGPRP | -0.218 |
| RRIRRRPPRLPRPRPRPLQPPRP | 0.873 |

| Sequence | shrunken log2 fold change |
| --- | --- |
| RRIRTRPPRLPRPRPRPYNPPRP | -0.224 |
| RRIRGRPPRLPRPRPRPMDWPRP | 0.929 |
| RRIRIRPPRLPRPRPRPWSFPRP | -0.0245 |
| RRIRTRPPRLPRPRPRPGLDPRP | 0.0222 |
| RRIRPRPPRLPRPRPRPEELPRP | 0.0725 |
| RRIRHRPPRLPRPRPRPFPEPRP | -0.104 |
| RRIRHRPPRLPRPRPRPYNDPRP | -0.0648 |
| RRIRGRPPRLPRPRPRPDRKPRP | 0.051 |
| RRIRIRPPRLPRPRPRPPERPRP | 0.324 |
| RRIRCRPPRLPRPRPRPHSVPRP | -0.613 |
| RRIRNRPPRLPRPRPRPCRSPRP | -0.0607 |
| RRIRFRPPRLPRPRPRPAGMPRP | -0.124 |
| RRIRYRPPRLPRPRPRPQHWPRP | 0.0376 |
| RRIRPRPPRLPRPRPRPETDPRP | 0.229 |
| RRIRTRPPRLPRPRPRPEFRPRP | -0.0543 |
| RRIRYRPPRLPRPRPRPNCCPRP | -0.518 |
| RRIRKRPPRLPRPRPRPLSAPRP | 0.402 |
| RRIRFRPPRLPRPRPRPHAYPRP | -0.118 |
| RRIRYRPPRLPRPRPRPPAYPRP | -0.767 |
| RRIRIRPPRLPRPRPRPKHLPRP | -0.137 |
| RRIRRRPPRLPRPRPRPPSVPRP | 0.545 |
| RRIRWRPPRLPRPRPRPTDFPRP | -0.149 |
| RRIRARPPRLPRPRPRPHRVPRP | -0.13 |
| RRIRQRPPRLPRPRPRPVFVPRP | -0.0727 |
| RRIRRRPPRLPRPRPRPNLIPRP | -0.221 |

| Sequence | shrunken log2 fold change |
| --- | --- |
| RRIRLRPPRLPRPRPRPDMTPRP | -0.0167 |
| RRIRQRPPRLPRPRPRPRHAPRP | -0.0685 |
| RRIRMRPPRLPRPRPRPTNLPRP | -0.0631 |
| RRIRNRPPRLPRPRPRPMTLPRP | -0.337 |
| RRIRFRPPRLPRPRPRPFQYPRP | -0.127 |
| RRIRNRPPRLPRPRPRPIVEPRP | 0.0466 |
| RRIRHRPPRLPRPRPRPKRMPRP | 0.101 |
| RRIRNRPPRLPRPRPRPPRCPRP | 0.389 |
| RRIRFRPPRLPRPRPRPESEPRP | 0.0687 |
| RRIRTRPPRLPRPRPRPPHYPRP | 0.0354 |
| RRIRPRPPRLPRPRPRPKRNPRP | 0.142 |
| RRIRWRPPRLPRPRPRPPQGPRP | 0.226 |
| RRIRCRPPRLPRPRPRPRMQPRP | 0.349 |
| RRIRTRPPRLPRPRPRPMYGPRP | -0.000687 |
| RRIRYRPPRLPRPRPRPKNWPRP | -0.3 |
| RRIRDRPPRLPRPRPRPVKPPRP | -0.0934 |
| RRIRWRPPRLPRPRPRPTSFPRP | -0.0166 |
| RRIRDRPPRLPRPRPRPPIQPRP | 0.242 |
| RRIRLRPPRLPRPRPRPHSIPRP | -0.191 |
| RRIRKRPPRLPRPRPRPGLNPRP | 0.0896 |
| RRIRPRPPRLPRPRPRPEQLPRP | 0.0838 |
| RRIRSRPPRLPRPRPRPMPNPRP | -0.0112 |
| RRIRTRPPRLPRPRPRPHHGPRP | -0.0105 |
| RRIRERPPRLPRPRPRPWYAPRP | -0.137 |
| RRIRLRPPRLPRPRPRPGWWPRP | 0.155 |

| Sequence | shrunken log2 fold change |
| --- | --- |
| RRIRKRPPRLPRPRPRPARCPRP | 0.782 |
| RRIRSRPPRLPRPRPRPEWQPRP | 0.254 |
| RRIRGRPPRLPRPRPRPGHDPRP | 0.0495 |
| RRIRERPPRLPRPRPRPAVLPRP | 0.034 |
| RRIRVRPPRLPRPRPRPHMRPRP | -0.0474 |
| RRIRRRPPRLPRPRPRPISQPRP | -0.395 |
| RRIRNRPPRLPRPRPRPNIHPRP | -0.457 |
| RRIRIRPPRLPRPRPRPGFVPRP | 0.108 |
| RRIRQRPPRLPRPRPRPEKEPRP | -0.0081 |
| RRIRQRPPRLPRPRPRPDKTPRP | -0.00926 |
| RRIRPRPPRLPRPRPRPIYEPRP | -0.0945 |
| RRIRYRPPRLPRPRPRPLIWPRP | -0.256 |
| RRIRIRPPRLPRPRPRPGMSPRP | -0.15 |
| RRIRPRPPRLPRPRPRPDFTPRP | -0.411 |
| RRIRCRPPRLPRPRPRPARFPRP | 0.558 |
| RRIRIRPPRLPRPRPRPMKHPRP | -0.224 |
| RRIRVRPPRLPRPRPRPEGVPRP | 0.907 |
| RRIRMRPPRLPRPRPRPHKSPRP | 0.223 |
| RRIRGRPPRLPRPRPRPLHLPRP | 0.0533 |
| RRIRARPPRLPRPRPRPCRQPRP | -0.0784 |
| RRIRYRPPRLPRPRPRPCSWPRP | -0.272 |
| RRIRCRPPRLPRPRPRPPHIPRP | 0.177 |
| RRIRWRPPRLPRPRPRPEQDPRP | -0.0232 |
| RRIRGRPPRLPRPRPRPDYLPRP | 0.115 |
| RRIRTRPPRLPRPRPRPCKFPRP | -0.298 |
